Test results published in patent US20150355199A1 (ROCHE DIAGNOSTICS OPERATIONS, published 2015).

T1: CFHR2-GS-Avi-GS-His8 (human)
T1 construct: Tagged recombinant protein from HEK293 cells; also called recombinant CFHR2
T1 chain: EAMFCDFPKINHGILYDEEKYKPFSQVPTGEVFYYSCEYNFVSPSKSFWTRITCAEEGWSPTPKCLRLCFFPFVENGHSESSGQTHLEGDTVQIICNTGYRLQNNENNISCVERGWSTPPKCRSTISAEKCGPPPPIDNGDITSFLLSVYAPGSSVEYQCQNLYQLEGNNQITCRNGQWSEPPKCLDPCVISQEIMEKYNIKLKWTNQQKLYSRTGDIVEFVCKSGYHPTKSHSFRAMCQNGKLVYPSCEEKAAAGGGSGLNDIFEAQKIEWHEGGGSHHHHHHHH

T2: recombinant CFHR1-1-5 (tag-less, full-length mature human complement factor H-related protein 1) (human, UniProt Q03591 19-330)
T2 construct: also called recCFHR1
T2 sequence: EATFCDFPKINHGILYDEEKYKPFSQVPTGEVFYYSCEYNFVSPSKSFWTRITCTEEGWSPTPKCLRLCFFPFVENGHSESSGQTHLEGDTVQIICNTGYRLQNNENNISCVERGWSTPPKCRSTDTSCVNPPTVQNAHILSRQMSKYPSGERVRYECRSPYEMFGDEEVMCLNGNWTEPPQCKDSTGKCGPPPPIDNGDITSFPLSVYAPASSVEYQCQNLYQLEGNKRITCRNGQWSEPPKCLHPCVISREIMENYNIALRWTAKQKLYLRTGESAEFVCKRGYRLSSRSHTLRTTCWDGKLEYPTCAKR

T3: CFHR3-GS-Avi-GS-His8 (human, UniProt Q02985 19-330)
T3 construct: Tagged recombinant protein from HEK293 cells; also called recombinant CFHR3
T3 sequence: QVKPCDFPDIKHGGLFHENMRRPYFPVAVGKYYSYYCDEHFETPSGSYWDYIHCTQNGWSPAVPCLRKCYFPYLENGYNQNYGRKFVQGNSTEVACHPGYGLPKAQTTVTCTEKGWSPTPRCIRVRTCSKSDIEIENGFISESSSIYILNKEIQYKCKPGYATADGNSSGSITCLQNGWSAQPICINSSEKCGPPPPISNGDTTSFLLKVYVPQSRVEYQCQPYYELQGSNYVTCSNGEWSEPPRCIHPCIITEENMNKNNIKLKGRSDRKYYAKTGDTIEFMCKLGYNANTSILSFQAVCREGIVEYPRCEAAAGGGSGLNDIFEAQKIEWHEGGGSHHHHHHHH

T4: CFHR5-GS-Avi-GS-His8 (human, UniProt Q9BXR6 19-569)
T4 construct: Tagged recombinant protein from HEK293 cells; also called recombinant CFHR5
T4 sequence: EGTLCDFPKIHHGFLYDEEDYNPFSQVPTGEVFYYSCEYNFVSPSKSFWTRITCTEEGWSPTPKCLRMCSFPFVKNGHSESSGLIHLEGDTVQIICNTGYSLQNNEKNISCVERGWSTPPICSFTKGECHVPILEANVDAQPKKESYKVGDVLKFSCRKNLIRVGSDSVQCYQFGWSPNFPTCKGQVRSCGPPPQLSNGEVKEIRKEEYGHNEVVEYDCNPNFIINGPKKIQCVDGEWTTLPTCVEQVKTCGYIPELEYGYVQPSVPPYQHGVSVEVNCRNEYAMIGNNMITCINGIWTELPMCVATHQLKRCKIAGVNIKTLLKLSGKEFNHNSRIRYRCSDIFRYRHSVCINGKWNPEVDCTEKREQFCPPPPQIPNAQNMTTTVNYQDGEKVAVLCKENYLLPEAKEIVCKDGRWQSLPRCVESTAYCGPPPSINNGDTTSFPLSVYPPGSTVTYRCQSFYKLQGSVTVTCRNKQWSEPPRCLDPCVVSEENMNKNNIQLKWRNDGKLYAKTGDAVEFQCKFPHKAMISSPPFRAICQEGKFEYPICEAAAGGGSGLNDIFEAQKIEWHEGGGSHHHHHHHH

T5: CFHR4-GS-Avi-GS-His8 (CFHR4 Variant B) (human)
T5 construct: Tagged recombinant protein from HEK293 cells; also called CFHR4B; recombinant CFHR4B
T5 chain: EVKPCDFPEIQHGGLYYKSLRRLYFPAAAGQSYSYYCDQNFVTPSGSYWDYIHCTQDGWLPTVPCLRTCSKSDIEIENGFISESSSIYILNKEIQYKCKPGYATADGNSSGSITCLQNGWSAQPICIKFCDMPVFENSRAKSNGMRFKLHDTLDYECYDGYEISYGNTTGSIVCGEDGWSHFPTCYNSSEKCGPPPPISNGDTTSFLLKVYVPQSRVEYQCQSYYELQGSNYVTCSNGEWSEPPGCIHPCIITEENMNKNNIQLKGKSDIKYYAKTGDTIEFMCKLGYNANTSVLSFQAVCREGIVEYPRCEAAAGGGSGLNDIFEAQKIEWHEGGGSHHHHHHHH

B1: MAB<CFHR1>M-4.2.53 (antibody, V domains shown)
VH: QVQLKESGPGLVAPSQSLSITCTVSGFSLTSYGVHWVRQPPGKGLEWLGVIWAGGNTDYISALMSRLSISKDNSKSQVFLKINRLQTDDTAVYYCARDHYDGYYMEYWGQGTSVTVSP
VL: DIQMTQSPSSLSASLGGKVTITCKASQDINKYLAWYQHKPGKGPRLLIHYTFTLQPGIPSRFSGGGSGRDYSFNINNLEPEDIATYYCLQYDNLYTFGGGTKLEIKR
notes: In-house mouse monoclonal IgG; also called MAB<CFHR1>M-4.2.53-Ru
B2: MAB<CFHR1>M-4.2.74 (antibody, V domains shown)
VH: DVRLVESGGGLVQPGGSRKLSCAASGFTFSSFGMHWVRQAPEKGLEWVAYISSGSSTIYYADTVKGRFTISRDNPKNTLFLQMTSLRSEDTAMYYCARWGNSYAMDYWGQGTSVTVSS
VL: DIVMTQSPSSLTVTAGEKVTMSCKSSQSLLNRGNQKNYLTWYQQKPGQPPKLLIYWASTRESGVPDRFTGSGSGTDFTLTISSVLAEDLAVYYCQIAYSSPFTFGSGTKLEIKR
notes: In-house mouse monoclonal IgG; also called MAB<CFHR1>M-4.2.74-Ru
B3: MAB<CFHR1>M-5.1.5 (antibody, V domains shown)
VH: EVQLVESGGDLVKPGGSLKLSCAASGFTFSSYDMSWVRQTPDKRLEWVATISSGGSNTYYPDSVKGRFTISRDNAKNTLYLQMSSLKSEDTAMYYCARQGYYYGSSYYAMDYWGQGTSVTVSS
VL: QIVLTQSPAIMSASPGEKVTMTCRASSSVSSSYLHWYQQKPGSSPKLWIYITSSLASGVPARFSGSGSGTSYSLTISSVEAEDGATYYCQQYHSSPYTFGSGTKLEIK
modifications: In the ECLIA sandwich assays the IgG was ruthenylated (Ru-(bpy)2-bpyCO-OSu). The BiaCore results used purified antibody with no label mentioned.
notes: It was used ruthenylated (-Ru) in the sandwich ECLIA; also called clone 5.1.5; MAK<CFHR1>M-5.1.5; copies: 2 + 2
B4: MAB<CFHR1>M-5.3.23 (antibody, V domains shown)
VH: EVKLEESGGGLVQPGGSMKLSCDGSGFTFSDAWMGWVRQSPEKGLEWVSEIRNRANNHETHYAESVKGRFTISRDDSKSRVYLQMNSLRAEDTGIYYCNGRYYDSYWFLDVWGAGTTVTVSS
VL: NIVMTQTPKFLPVSVGDRVTMTCKASQSVGYNVAWFQQKPGQSPKLLIYYASNRYTGVPDRFTGSGGGTDFTFTISSVQVEDLAVYFCQQHYISPTFGSGTKLEIKR
notes: In-house mouse monoclonal IgG; also called MAB<CFHR1>M-5.3.23-Ru
B5: MAB<CFHR1>M-4.1.3 (antibody, V domains shown)
VH: DVQLQESGPGLVKPSQSLSLTCTVTGYSITSEYAWNWIRQFPGNKLEWMAYINSSGKSSYNPSLKSRISVTRDTSKNQFFLQLNSVTTEDTATYYCAREGYGNYPAWFAYWGQGTLVTVSA
VL: DIQMTQTTSSLSASLGDRVTISCSASQDINNYLNWYQQKPDGTVKLLIYYTSNLHSGVPSRFSGSGSGTDYSLTISNLEPEDIATYFCQQYSKLPRTFGGGTKLEIKR
notes: In-house mouse monoclonal IgG; also called MAB<CFHR1>M-4.1.3-Ru

Columns and labels:
[1] = target: T1, CFHR2-GS-Avi-GS-His8; assay: sandwich ECLIA, L20/3 Fab-Bi capture + 4.2.53-Ru detection (signal needs both antibodies); sample 50 µg/ml recombinant CFHR2
[2] = target: T1, CFHR2-GS-Avi-GS-His8; assay: sandwich ECLIA, L20/3 Fab-Bi capture + 4.2.53-Ru detection (signal needs both antibodies); sample 100 µg/ml recombinant CFHR2
[3] = target: T2, recombinant CFHR1-1-5 (tag-less, …); assay: indirect ELISA, hybridoma supernatant on CFHR1 captured by biotinylated L20/3 Fab on streptavidin plates
Description: (§1) MAb production in hybridoma culture supernatants was assayed by indirect enzyme-linked immunosorbent assay (ELISA). Streptavidin coated microtiter plates (Microcoat, Bernried, Germany) were incubated with biotinylated Fab fragment of the MAB<CFH/CFHR1>M-L20/3 monoclonal antibody diluted 1:2000 in incubation buffer (phosphate buffered saline pH 7.3, 0.5% Byco C) for 1 h at room temperature. After washing with washing buffer (0.9% NaCl solution, 0.05% Tween 20) the microtiter plates were incubated for 1 h at room temperature with 100 ng/ml purified recombinant CFHR1 and CFH protein diluted in incubation buffer. The microtiter plates were washed again and hybridoma supernatants were added to the coated well and incubated for 1 h at room temperature. After washing, the bound monoclonal antibodies (MAbs) were detected by a 1 h incubation with goat anti-mouse IgG peroxidase conjugate (Calbiochem, Germany) diluted 1:5000 in incubation buffer followed by substrate reaction with ABTS solution (Roche, Germany) after further washing step. The color change was measured in an ELISA reader at 405/490 nm after 20-30 min. Some CFHR1-specific clones without any crossreactivity against CFH were selected.

[4] = target: T6, native human complement factor H (CFH) (human, UniProt P08603 19-1231); assay: indirect ELISA, hybridoma supernatant on CFH captured by biotinylated L20/3 Fab on streptavidin plates
T6 construct: Native CFH; also called native CFH; serum-purified CFH
Description: as §1

[5] = target: T1, CFHR2-GS-Avi-GS-His8; assay: sandwich ECLIA, L20/3 Fab-Bi capture + 4.2.74-Ru detection (signal needs both antibodies); sample 50 µg/ml recombinant CFHR2
[6] = target: T1, CFHR2-GS-Avi-GS-His8; assay: sandwich ECLIA, L20/3 Fab-Bi capture + 4.2.74-Ru detection (signal needs both antibodies); sample 100 µg/ml recombinant CFHR2
[7] = target: T6, native human complement factor H (CFH); assay: SPR (BiaCore), antibody captured by rabbit anti-mouse IgG on CM5 chip; n.d. = not detectable
Description: (§2) The antibodies MAB<CFH/CFHR1>M-L20/3, MAB<CFHR1>M-442127, MAB<CFHR1>M-4.1.3 and MAB<CFHR1>M-5.1.5 were analyzed on the BiaCore. The chip CM5 coated with a rabbit anti-Mouse IgG was used to bind the purified monoclonal mouse antibodies. In the next step native CFH or the recombinant CFHR1, CFHR2, CFHR3, CFHR4B or CFHR5 proteins according to SEQ ID No.: 9 to 13 were added to determine the binding affinities of the different antibodies.

[8] = target: T3, CFHR3-GS-Avi-GS-His8; assay: as above
Description: as §2

[9] = target: T7, CFHL1-GS-Avi-GS-His8 (human, UniProt P08603 19-445); assay: as above
T7 construct: also called complement factor H isoform 2
Description: as §2

[10] = target: T4, CFHR5-GS-Avi-GS-His8; assay: as above
Description: as §2

[11] = target: T5, CFHR4-GS-Avi-GS-His8 (CFHR4 Variant B); assay: as above
Description: as §2

[12] = target: T1, CFHR2-GS-Avi-GS-His8; assay: SPR (BiaCore), antibody captured by rabbit anti-mouse IgG on CM5 chip, antigen in solution
Description: as §2

[13] = target: T2, recombinant CFHR1-1-5 (tag-less, …); assay: as above
Description: as §2

[14] = target: T1, CFHR2-GS-Avi-GS-His8; assay: sandwich ECLIA, L20/3 Fab-Bi capture + 5.3.23-Ru detection (signal needs both antibodies); sample 50 µg/ml recombinant CFHR2
[15] = target: T1, CFHR2-GS-Avi-GS-His8; assay: sandwich ECLIA, L20/3 Fab-Bi capture + 5.3.23-Ru detection (signal needs both antibodies); sample 100 µg/ml recombinant CFHR2

Binder | binding result [3] | binding result [4] | binding result [7] | binding result [8] | binding result [9] | binding result [10] | binding result [11] | Kd [12] [pM] | Kd [13] [pM] | also measured
B1 | binds | no binding (tested: 100 ng/ml CFH) | – | – | – | – | – | – | – | Measured CFHR1 [1]: 0 µg/mL; Measured CFHR1 [2]: 0.09 µg/mL
B2 | binds | no binding (tested: 100 ng/ml CFH) | – | – | – | – | – | – | – | Measured CFHR1 [5]: 0 µg/mL; Measured CFHR1 [6]: 0 µg/mL
B3 | – | – | no binding | no binding | no binding | no binding | no binding | 300 | 10 | –
B4 | binds | no binding (tested: 100 ng/ml CFH) | – | – | – | – | – | – | – | Measured CFHR1 [14]: 0 µg/mL; Measured CFHR1 [15]: 0 µg/mL
B5 | – | – | no binding | no binding | no binding | no binding | no binding | 19000 | 800 | –
